Laboratory results as given in publication PMC4880913, “Solution structure and binding specificity of the p63 DNA binding domain”.
Positions count from the first letter of the chain named.

T1: p63-DBD (UniProt Q9H3D4 153-388)
T1 sequence: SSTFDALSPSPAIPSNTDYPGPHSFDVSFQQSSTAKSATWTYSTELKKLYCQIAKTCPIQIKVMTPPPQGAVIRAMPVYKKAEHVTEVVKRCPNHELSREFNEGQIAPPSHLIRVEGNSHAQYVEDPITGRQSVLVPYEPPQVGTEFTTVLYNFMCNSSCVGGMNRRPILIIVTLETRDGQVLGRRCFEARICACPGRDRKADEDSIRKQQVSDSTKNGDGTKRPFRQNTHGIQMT

T2: p63-DBD L210E (UniProt Q9H3D4 153-388, L249E)
T2 sequence: T1 sequence with L97E

B1: con2 x 5 (NMR) (dsDNA)
DNA 1: TTAGGACATGTCCATC
DNA 2: GATGGACATGTCCTAA
B2: con2 x 5 (FP) (dsDNA)
DNA 1: TTAGGACATGTCCATC
DNA 2: GATGGACATGTCCTAA

Columns and labels:
[1] = target: T1, p63-DBD; experiment: NMR titration (1H-15N TROSY); 100 mM NaCl; FP: 100 nM 5'-fluorescein dsDNA, 10 mM sodium phosphate pH 7.2, 1 mM DTT, temperature not stated; NMR: 1 mM sodium phosphate pH 7.2, 100 mM NaCl, 5 mM DTT, 303; details: protein: recombinant; tags: His-tag removed with thrombin (pET28a construct); blunt
[2] = target: T2, p63-DBD L210E; experiment: fluorescence polarization; FP: 100 nM 5'-fluorescein dsDNA, 10 mM sodium phosphate pH 7.2, 1 mM DTT, temperature not stated; NMR: 1 mM sodium phosphate pH 7.2, 100 mM NaCl, 5 mM DTT, 303; details: protein: recombinant; label: 5'-fluorescein; blunt
[3] = target: p53-DBD (UniProt P04637 94-312); experiment: as above; details: protein: recombinant; chain copies: 2; label: 5'-fluorescein; blunt
p53-DBD, sequence (P04637 94-312): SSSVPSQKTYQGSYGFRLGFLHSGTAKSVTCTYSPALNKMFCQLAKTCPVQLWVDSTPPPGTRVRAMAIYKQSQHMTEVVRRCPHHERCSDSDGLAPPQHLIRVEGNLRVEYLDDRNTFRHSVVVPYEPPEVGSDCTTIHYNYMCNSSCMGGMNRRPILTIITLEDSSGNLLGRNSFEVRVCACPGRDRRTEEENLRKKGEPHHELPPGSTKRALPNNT

Row | Binder | binding result [1] | binding result [2] | binding result [3]
1 | B1 | binds |  | 
2 | B2 |  | binds | binds
